Laboratory results reported in article PMC3274541, “The Inherited Blindness Protein AIPL1 Regulates the Ubiquitin-Like FAT10 Pathway” (PLoS ONE, 2012).

T1: Myc-AIPL1 (aryl hydrocarbon receptor interacting protein-like 1), wild type (UniProt Q9NZN9 1-384)
T1 construct: also called pCMV-Tag3C-AIPL1; WT AIPL1; source: SK-N-SH, transfected, in lysate
T1 sequence (looked up): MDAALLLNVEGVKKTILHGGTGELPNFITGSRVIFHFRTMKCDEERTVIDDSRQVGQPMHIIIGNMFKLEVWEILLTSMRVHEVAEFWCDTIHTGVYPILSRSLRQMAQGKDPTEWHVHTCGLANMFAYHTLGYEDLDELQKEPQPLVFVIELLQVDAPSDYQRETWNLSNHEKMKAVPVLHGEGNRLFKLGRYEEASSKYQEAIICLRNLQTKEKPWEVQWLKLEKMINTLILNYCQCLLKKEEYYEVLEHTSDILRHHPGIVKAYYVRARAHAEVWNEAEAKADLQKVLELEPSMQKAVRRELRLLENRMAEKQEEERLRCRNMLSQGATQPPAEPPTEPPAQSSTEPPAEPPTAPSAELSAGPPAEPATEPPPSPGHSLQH

B1: NUB1-FLAG (NEDD8 ultimate buster-1) (natural protein)
chain: not shown
notes: NEDD8 ultimate buster-1 (NUB1), the shorter splice variant that lacks 14 amino acids in the second UBA domain of NUB1L; also called NUB1-p3XFLAG-CMV; source: SK-N-SH, transfected, in lysate
B2: HA-FAT10 (natural protein, UniProt O15205 1-165, looked up)
chain: MAPNASCLCVHVRSEEWDLMTFDANPYDSVKKIKEHVRSKTKVPVQDQVLLLGSKILKPRRSLSSYGIDKEKTIHLTLKVVKPSDEELPLFLVESGDEAKRHLLQVRRSSSVAQVKAMIETKTGIIPETQIVTCNGKRLEDGKMMADYGIRKGNLLFLACYCIGG
notes: ubiquitin-like modifier FAT10; also called free FAT10; monomeric FAT10; source: SK-N-SH, transfected, in lysate

Key:
Assay in all cases: co-IP; SK-N-SH cells co-transfected; lysed in DM buffer (1% n-dodecyl-β-D-maltoside, 10 mM EDTA, protease inhibitors in PBS); 2 µl antibody 2 h at 4°C, Protein G Sepharose overnight at 4°C, 5 washes; western blot; with or without 50 µM MG132 for 4 h
Conditions in all cases: partners not purified
HA-FAT10 = target: B2
[1] = target: T1, Myc-AIPL1 (aryl hydrocarbon receptor …)
[2] = target: B1

fold increase of the co-precipitate with MG132 over untreated cells (HA-FAT10) [fold]	fold increase of the co-precipitate with proteasome inhibitor over untreated cells [1] [fold]	fold increase of the co-precipitate with proteasome inhibitor over untreated cells [2] [fold]	Binder
~5			B1
	~5	~2	B2
